Reference: publication PMC5812673

Target: Insulin Aspart (human)
Assay: hexamer dissociation kinetics

Hexamer t½ (dissociation of the Zn2+-hexamer): 42.7 s
Substance: Insulin Aspart (natural protein)
